In the assay the target is GLP-1 receptor (UniProt P32301). Kind of assay: cell-based or functional assay.

On to “dAla^2,Pro^3,Leu^14,Phe^25-exendin-4 (1-28) amide (from UniProt P26349) (peptide)”, for which the Cyclase GLP-1 Receptor EC50 was 29 pM. The substance “dAla^2,Pro^3-exendin-4 amide (from UniProt P26349 48-86) (peptide)” yielded a Cyclase GLP-1 Receptor EC50 of 4 pM.

Source of the values: patent US20120046222A1.
